One assay concerns the target T1, NANPx6 peptide (Plasmodium falciparum CSP repeat, …).
T1 construct: also called NANP6; short repeat peptide
The assay is described as follows: ELISA. The settings on record: both partners purified. Background: ELISA stands for enzyme-linked immunosorbent assay.

For a further assay, the target named is T2, NPDP19 peptide (Plasmodium falciparum CSP junction, …).
T2 construct: also called peptide NPDP-19
T2 chain: KQPADGNPDPNANPNVDPN
The assay is described as follows: ELISA. To be noted: both partners purified.

In assay [1] the target is T3, P. falciparum CSP on transgenic P. berghei sporozoites (Plasmodium falciparum, gene strain not …, UniProt Q7K740).
T3 construct: also called transgenic P. berghei sporozoites carrying the P. falciparum CSP gene; transgenic P. berghei-falciparum sporozoites
The assay is described as follows: ELISA. To be noted: one partner purified.

Assay [2] deals with P. falciparum sporozoite CSP (Plasmodium falciparum NF54, UniProt P19597). The assay is described as follows: cell-based or functional assay.
For the next assay, the target named is T4, biotinylated NANPx6 (Plasmodium falciparum CSP repeat, …).
T4 construct: also called NANPx6 peptide; NANPx6 target antigen
As to the kind of experiment: BLI; Octet RED96; biotinylated FL-CSP or biotinylated NANPx6 on streptavidin biosensors, Fab in solution, kinetics buffer; global fit to 1:1 Langmuir model. To be noted: both partners purified. On the technique in general: BLI is a label-free optical method that tracks binding on a fibre tip over time.

The next assay has as its target T5, peptide 21 (Plasmodium falciparum CSP junction, …).
T5 construct: also called NP-DPNA-NPNV-DPNA-N
T5 chain: NPDPNANPNVDPNAN
As to the kind of experiment: ELISA. The settings on record: both partners purified.

A value given as a limit tells only on which side of the number the result lay.

The text below walks through data of paper PMC7970865 (Scientific Reports, 2021).

B1: mAb 311 (antibody, V domains shown)
VH: QVQLVESGGGVVPPGRSLRLSCATSGFTFSNYGMHWVRQAPGKGLEWVAIIWYDGSRNFYAASVEGRFTISRDNSKNTLYLQMNSLRVEDTAVYYCARAAYYDTSGYGDYWGQGTLVTVSS
VL: QSVLTQPPSVSGAPGQTVTISCTGGSSNIGAGYDVHWYQQLPGTAPKLLIYGNINRPSGVPDRFSGSKSGTSASLAITGLQAEDEADYYCQSYDRRLSGSWVFGGGTKLTVL
With B1, the “ng/ml mAb needed for OD = 1” value in the assay with NANPx6 peptide is under 10 ng/mL. In addition, the binding result (with NPDP19 peptide; in assay [1]) was “binds” in each case. Further, in assay [2], the other was about 100%.

B2: Fab 311 (Fab, V domains shown)
VH: QVQLVESGGGVVPPGRSLRLSCATSGFTFSNYGMHWVRQAPGKGLEWVAIIWYDGSRNFYAASVEGRFTISRDNSKNTLYLQMNSLRVEDTAVYYCARAAYYDTSGYGDYWGQGTLVTVSS
VL: QSVLTQPPSVSGAPGQTVTISCTGGSSNIGAGYDVHWYQQLPGTAPKLLIYGNINRPSGVPDRFSGSKSGTSASLAITGLQAEDEADYYCQSYDRRLSGSWVFGGGTKLTVL
Regarding B2, in the assay with biotinylated NANPx6, the Kd – broadly, the constant that tells how readily two partners part at equilibrium – stood at 7 nM; the koff – broadly, a measure of how fast the partners let go of each other – came out at 0.0002 s⁻¹; the kon – broadly, the rate constant with which the complex forms – is 27000 M⁻¹ s⁻¹.

B3: mAb 317 (antibody, V domains shown)
VH: QMQLVESGGGVVQPGRSLRLSCTASGFTFSTYAMHWVRQSPGQGLQWVAVISYHSTNKYYEDSVRGRFTISRDNSKNTLYLQMNSLRAEDTAVYYCARDGYSSSFFDFWGQGTLVTVSS
VL: DIQMTQSPSTLSASVGDRVAITCRASQSISRWLAWYQQQPGKAPKLLMSGASVLESGVPSRFSGSGSGTEFTLTISSLQPDDFATYYCQHYNSYFVTFGQGTKVEIK
For B3, the “ng/ml mAb needed for OD = 1” value with NANPx6 peptide is under 10 ng/mL.

B4: Fab 317 (Fab, V domains shown)
VH: QMQLVESGGGVVQPGRSLRLSCTASGFTFSTYAMHWVRQSPGQGLQWVAVISYHSTNKYYEDSVRGRFTISRDNSKNTLYLQMNSLRAEDTAVYYCARDGYSSSFFDFWGQGTLVTVSS
VL: DIQMTQSPSTLSASVGDRVAITCRASQSISRWLAWYQQQPGKAPKLLMSGASVLESGVPSRFSGSGSGTEFTLTISSLQPDDFATYYCQHYNSYFVTFGQGTKVEIK
On to B4, for which, in the assay with biotinylated NANPx6, the Kd came to 0.003 nM.

B5: mAb 663 (antibody, V domains shown)
VH: EVQLLESGGGLEQPGGSLRLSCVVSGFTFSNYAFNWVRQAPGKGLEWVAIIYRSGSRMYHADSVKGRFTISRDDSKNTLFLQMNNLRAEDTAVYYCTTLLIYESDVGVDFWGQGTLVTVSS
VL: DIVMTQSPLSLPVSPGEPASISCRSTQSLIFGEHNYLDWYLQKPGQSPQLLIYLASNRASGVPDRFSGSGSGTYFTLKISRVEAEDFGVYYCVQTVQVPYTFGQGTKLEIK
Regarding B5, the “ng/ml mAb needed for OD = 1” value with NANPx6 peptide is under 10 ng/mL. Moreover, the binding result (with NPDP19 peptide; in assay [1]) was “binds” throughout. The same molecule had an other in assay [2] of about 100%.

B6: Fab 663 (Fab, V domains shown)
VH: EVQLLESGGGLEQPGGSLRLSCVVSGFTFSNYAFNWVRQAPGKGLEWVAIIYRSGSRMYHADSVKGRFTISRDDSKNTLFLQMNNLRAEDTAVYYCTTLLIYESDVGVDFWGQGTLVTVSS
VL: DIVMTQSPLSLPVSPGEPASISCRSTQSLIFGEHNYLDWYLQKPGQSPQLLIYLASNRASGVPDRFSGSGSGTYFTLKISRVEAEDFGVYYCVQTVQVPYTFGQGTKLEIK
In the assay with biotinylated NANPx6, B6 registered a Kd of 138 nM, a koff of 0.056 s⁻¹ and a kon of 400000 M⁻¹ s⁻¹.

B7: mAb MGG4 (antibody, V domains shown)
VH: QVQLVESGGGVVQPGRSLRLSCAASGFRFSDYGMHWVRQAPGKGLEWVALIWYDGSNESYLDSVKGRFTISRDNSKNTLYLQMNNLRTEDTAVYYCAKLLVGITTDVFDVWGQGTVVTVSS
VL: DIVMTQSPDSLAVSLGERATINCRSSQSVLSSSNNKNYLAWYQHKPRQPPKLLIYWASTRESGVPDRFSGSGSGTDFTLTISSLQAEDVAVYYCQQYYTASPFFGGGTKVEIK
With B7, the “ng/ml mAb needed for OD = 1” value with NANPx6 peptide was under 10 ng/mL. Further, the binding result (with NPDP19 peptide; in assay [1]) was “binds” each time. Besides, the other in assay [2] is about 100%.

B8: Fab MGG4 (Fab, V domains shown)
VH: QVQLVESGGGVVQPGRSLRLSCAASGFRFSDYGMHWVRQAPGKGLEWVALIWYDGSNESYLDSVKGRFTISRDNSKNTLYLQMNNLRTEDTAVYYCAKLLVGITTDVFDVWGQGTVVTVSS
VL: DIVMTQSPDSLAVSLGERATINCRSSQSVLSSSNNKNYLAWYQHKPRQPPKLLIYWASTRESGVPDRFSGSGSGTDFTLTISSLQAEDVAVYYCQQYYTASPFFGGGTKVEIK
notes: also called MGG4 Fab
In the assay with biotinylated NANPx6, B8 came in with a Kd of 51 nM, a koff of 0.0045 s⁻¹ and a kon of 90000 M⁻¹ s⁻¹.

B9: mAb CIS43 (antibody, V domains shown)
VH: QVQLVQSGAEVKKPGASVKVSCKASGYTFTSYAIHWVRQAPGQRLEWMGWIKAGNGNTRYSQKFQDRVTITRDTSTTTAYMELSSLRSEDTAVYYCALLTVLTPDDAFDIWGQGTMVTVSS
VL: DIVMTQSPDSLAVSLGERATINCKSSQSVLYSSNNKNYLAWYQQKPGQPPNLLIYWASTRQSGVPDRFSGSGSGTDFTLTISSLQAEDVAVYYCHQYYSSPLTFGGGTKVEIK
Consider B9, for which, in the assay with NANPx6 peptide, the “ng/ml mAb needed for OD = 1” value is under 10 ng/mL. The binding result with peptide 21 and with NPDP19 peptide was “binds” in each case. For the same molecule, the other in assay [2] is about 100%.

B10: Fab CIS43 (Fab, V domains shown)
VH: QVQLVQSGAEVKKPGASVKVSCKASGYTFTSYAIHWVRQAPGQRLEWMGWIKAGNGNTRYSQKFQDRVTITRDTSTTTAYMELSSLRSEDTAVYYCALLTVLTPDDAFDIWGQGTMVTVSS
VL: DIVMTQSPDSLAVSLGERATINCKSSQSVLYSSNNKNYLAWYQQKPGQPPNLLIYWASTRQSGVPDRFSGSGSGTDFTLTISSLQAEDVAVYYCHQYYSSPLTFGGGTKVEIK
Take B10: in the assay with biotinylated NANPx6, the Kd turned out to be 41 nM, the koff came out at 0.0017 s⁻¹ and the kon worked out at 40000 M⁻¹ s⁻¹.
